The text below walks through data of patent US20250346668A1 (GENOR BIOPHARMA, published 2025).

Experiment [1] deals with T1, human CD3e/g antigen (ACRO, catalog number CDG-H52W5) (human, UniProt P07766 23-126; P09693 23-116).
T1 construct: Bought reagent used as the Biacore analyte; also called hCD3e/g
Nature of the experiment: SPR (Biacore 8K), antibody captured via anti-human Fc. Summed up: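 Anti-human IgG (Fc) antibody amine-coupled on CM5 chip captures CD3 antibodies; antigen injected at a concentration series. Association and dissociation curves fitted kinetically to give equilibrium dissociation constant.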

Another experiment concerns the target T2, CD3 on Jurkat cells (human).
T2 construct: native, on the surface of Jurkat cells; The sheets print only 'Jurkat'; also called human CD3; TCR/CD3 complex on the human T cell line Jurkat
Nature of the experiment: FACS on Jurkat cells, Alexa 488 secondary antibody, MFI [d]. As for the experimental part: Jurkat cells were amplificatorily cultured to 3×10⁶/ml in a T-175 cell culture flask, the culture medium was removed by centrifugation, and the cells were washed twice with PBS buffer (purchased from Invitrogen). After cell counting, the cells were diluted to 2×10⁶ cells/ml with PBS buffer, added with 1% BSA blocking solution, where the percentage was a mass percentage, incubated on ice for 30 minutes, and then washed twice with PBS buffer by centrifugation. The collected cells were suspended to 2×10⁶ cells/mL with FACS buffer (PBS+1% BSA, where the percentage was a mass percentage), and added to a 96-well FACS reaction plate at 100 μl per well, and samples of the purified CD3 antibodies obtained in Example 4 to be tested were added at 100 μl per well, and incubated at 4° C. for 2 hours. The plate was washed twice with FACS buffer by centrifugation, added with 100 μl per well of fluorescent (Alexa 488) labeled secondary antibody (purchased from Jackson), and incubated at 4° C. for 1 hour. After washing 3 times by centrifugation with FACS buffer, the cells were suspended with 100 μl of FACS buffer, and detected and analyzed using BD FACS LSRFortessa (purchased from BD). The results are shown in FIG. 5, where the IgG control is human IgG1 (hIgG).

B1: CAb008 (antibody, V domains shown)
VH: QVQLQQSGAELARPGASVKMSCKTSGYTFTDYTVNWVKQRPGQGLEWIGYINPFNSYTKYNQKFKDKATLTADKSSSTAYMQLSSLTSEDSAVYFCANSVSTYWGQGTTLTVSS
VL: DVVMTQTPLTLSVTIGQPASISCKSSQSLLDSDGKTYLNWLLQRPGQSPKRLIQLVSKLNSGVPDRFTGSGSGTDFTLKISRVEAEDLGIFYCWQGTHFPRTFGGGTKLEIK
notes: Chimeric: mouse variable regions linked to human light and heavy constant regions; constant regions not specified
For the molecule B1, in experiment [1], the dissociation constant Kd is 21.2 nM, the off-rate (koff) turned out to be 0.00372 s⁻¹ and the kon worked out at 176000 M⁻¹ s⁻¹. Also, the “EC50 (read off the curve)” value in the experiment with CD3 on Jurkat cells was approximately 3 nM.
